Article PMC4581966 (Cytokine & growth factor reviews, 2015)

B1: IL-12p35 subunit of mouse recombinant IL-35 (rIL-35) (natural protein, UniProt P43431 23-215, looked up)
chain: RVIPVSGPARCLSQSRNLLKTTDDMVKTAREKLKHYSCTAEDIDHEDITRDQTSTLKTCLPLELHKNESCLATRETSSTTRGSCLPPQKTSLMMTLCLGSIYEDLKMYQTEFQAINAALQNHNHQQIILDKGMLVAIDELMQSLNHNGETLRQKPPVGEADPYRVKMKLCILLHAFSTRVVTINRVMGYLSSA
B2: Ebi3 subunit of mouse recombinant IL-35 (rIL-35), O35228 19-228 (natural protein)
chain: YTETALVALSQPRVQCHASRYPVAVDCSWTPLQAPNSTRSTSFIATYRLGVATQQQSQPCLQRSPQASRCTIPDVHLFSTVPYMLNVTAVHPGGASSSLLAFVAERIIKPDPPEGVRLRTAGQRLQVLWHPPASWPFPDIFSLKYRLRYRRRGASHFRQVGPIEATTFTLRNSKPHAKYCIQVSAQDLTDYGKPSDWSLPGQVESAPHKP

Legend:
SEC = target: the molecule itself; assay: SEC
[1] = target: T1, Ebi3 subunit of mouse recombinant IL-35 (rIL-35) (mouse), O35228; assay: SEC; conditions: remark: other sources report otherwise
T1 chain: B2 chain

Binder	stoichiometry N (SEC)	stoichiometry N [1]
B1	2	–
B2	–	2
